Source: article doi:10.1101/2021.01.07.425795 (bioRxiv, 2021)
Residue numbers refer to the chain shown, from its start. Like-named read-outs stand apart in the source and are kept apart here. Blank lines part the entries; values can stand above or below the binder they belong to.

Experiments:
His6-ECSIT [1] = molecular target: T1, His6-ECSIT (human, UniProt Q9BQ95 49-431); assay: SEC
T1 sequence (looked up): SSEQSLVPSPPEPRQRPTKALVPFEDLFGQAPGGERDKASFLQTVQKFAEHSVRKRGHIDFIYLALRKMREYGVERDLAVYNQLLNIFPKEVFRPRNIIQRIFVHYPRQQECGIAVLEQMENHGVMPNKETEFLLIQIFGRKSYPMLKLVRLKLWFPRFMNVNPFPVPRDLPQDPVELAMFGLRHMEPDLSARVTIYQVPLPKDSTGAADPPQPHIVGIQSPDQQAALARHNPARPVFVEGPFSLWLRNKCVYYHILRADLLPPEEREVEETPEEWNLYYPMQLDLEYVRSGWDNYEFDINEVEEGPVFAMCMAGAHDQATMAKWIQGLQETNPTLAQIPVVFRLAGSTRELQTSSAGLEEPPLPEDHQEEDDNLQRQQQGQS

His6-ECSIT [2] = molecular target: T1, His6-ECSIT; assay: SEC; remark: listed apart in the source
SEC = molecular target: the molecule itself; assay: SEC
ACAD9-His6 = molecular target: T2, ACAD9-His6 (human, UniProt Q9H845 38-621); assay: pull-down
T2 sequence (looked up): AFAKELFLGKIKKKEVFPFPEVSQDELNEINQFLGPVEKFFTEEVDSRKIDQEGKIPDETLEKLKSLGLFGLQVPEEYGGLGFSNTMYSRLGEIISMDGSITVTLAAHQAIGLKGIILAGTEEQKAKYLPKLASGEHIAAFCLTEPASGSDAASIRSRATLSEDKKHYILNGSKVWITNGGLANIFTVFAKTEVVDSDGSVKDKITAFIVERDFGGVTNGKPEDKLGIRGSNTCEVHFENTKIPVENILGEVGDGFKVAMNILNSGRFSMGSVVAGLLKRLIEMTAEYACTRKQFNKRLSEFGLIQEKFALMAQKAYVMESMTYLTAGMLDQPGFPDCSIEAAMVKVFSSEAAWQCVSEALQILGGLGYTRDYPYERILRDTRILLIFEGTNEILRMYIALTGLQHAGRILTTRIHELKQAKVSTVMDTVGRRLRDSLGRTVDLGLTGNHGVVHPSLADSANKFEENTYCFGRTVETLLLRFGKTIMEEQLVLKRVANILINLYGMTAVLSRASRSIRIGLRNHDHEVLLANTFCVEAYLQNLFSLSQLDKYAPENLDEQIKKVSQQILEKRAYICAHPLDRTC

[3] = molecular target: T3, ACAD9 (wild type, without a tag) (human, UniProt Q9H845 38-621); assay: SEC
T3 sequence (looked up): T2 sequence (looked up)

stoichiometry N (His6-ECSIT [1]): 1 mol/mol | stoichiometry N (His6-ECSIT [2]): 1 NDUFAF1 chains per ECSIT chain (two monomers with one dimer)
B1: His6-SMT3-NDUFAF1 (natural protein, human, UniProt Q9Y375 25-327, looked up)
chain: YPFLGIRFAEYSSSLQKPVASPGKASSQRKTEGDLQGDHQKEVALDITSSEEKPDVSFDKAIRDEAIYHFRLLKDEIVDHWRGPEGHPLHEVLLEQAKVVWQFRGKEDLDKWTVTSDKTIGGRSEVFLKMGKNNQSALLYGTLSSEAPQDGESTRSGYCAMISRIPRGAFERKMSYDWSQFNTLYLRVRGDGRPWMVNIKEDTDFFQRTNQMYSYFMFTRGGPYWQEVKIPFSKFFFSNRGRIRDVQHELPLDKISSIGFTLADKVDGPFFLEIDFIGVFTDPAHTEEFAYENSPELNPRLFK

B2: Loop12-ACAD9 (enzyme, human)
chain: AFAKELFLGKIKKKEVFPFPEVSQDELNEINQFLGPVEKFFTEEVDSRKIDQEGKIPDETLEKLKSLGLFGLQVPEEYGGLGFSNTMYSRLGEIISMDGSITVTLAAHQAIGLKGIILAGTEEQKAKYLPKLASGEHIAAFCLTEPASGSDAASIRSRATLSEDKKHYILNGSKVWITNGGLANIFTVFAKTEVVDSDGSVKDKITAFIVERDFGGVTNGKPEDKLGIRGSNTCEVHFENTKIPVENILGEVGDGFKVAMNILNSGRFSMGSVVAGLLKRLIEMTAEYACTRKQFNKRLSEFGLIQEKFALMAQKAYVMESMTYLTAGMLDQPGFPDCSIEAAMVKVFSSEAAWQCVSEALQILGGLGYTRDYPYERILRDTRILLIFEGTNEILRMYIALTGLQHAGRILTTGGSGGSGGSGGSDLGLTGNHGVVHPSLADSANKFEENTYCFGRTVETLLLRFGKTIMEEQLVLKRVANILINLYGMTAVLSRASRSIRIGLRNHDHEVLLANTFCVEAYLQNLFSLSQLDKYAPENLDEQIKKVSQQILEKRAYICAHPLDRTC
stoichiometry N (SEC): 2

B3: ACAD9 Arg518His (enzyme, human, UniProt Q9H845 38-621, looked up)
chain: T2 sequence (looked up) with R481H
stoichiometry N (SEC): 2

B4: ACAD9 Glu426Gln (enzyme, human, UniProt Q9H845 38-621, looked up)
chain: T2 sequence (looked up) with E389Q
stoichiometry N (SEC): 2

B5: ACAD9 Arg532Trp (enzyme, human, UniProt Q9H845 38-621, looked up)
chain: T2 sequence (looked up) with R495W
stoichiometry N (SEC): 2

stoichiometry N (ACAD9-His6): ~1 mol/mol
B6: ECSIT (tag-free) (natural protein, human, UniProt Q9BQ95 49-431, looked up)
chain: T1 sequence (looked up)

stoichiometry N [3]: 1 C-ECSIT chains per ACAD9 chain (one tetramer with two dimers)
B7: His6-C-ECSIT (domain or fragment, human, UniProt Q9BQ95 249-431, looked up)
chain: LPKDSTGAADPPQPHIVGIQSPDQQAALARHNPARPVFVEGPFSLWLRNKCVYYHILRADLLPPEEREVEETPEEWNLYYPMQLDLEYVRSGWDNYEFDINEVEEGPVFAMCMAGAHDQATMAKWIQGLQETNPTLAQIPVVFRLAGSTRELQTSSAGLEEPPLPEDHQEEDDNLQRQQQGQS
stoichiometry N (SEC): 4
